In the supplement of paper PMC10126150 one finds switch fluorescence ratio data, which are given here for 66 sequences.

± gives the standard deviation of the averaged measurements.
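Also: ATP exposure 15 min at 22 °C before imaging.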

This series deals with ATP. Nature of the series: switch fluorescence ratio, 500 uM ATP over buffer (Cy3 cluster intensity, sum of 5 cycles each) (fold (ratio)); higher = stronger signal-on switching upon ATP binding; sequences stand for … in TCGTCGGCAGCGTCAGATGTGTATAAGAGACAGTTTTTTTTTTTTTTTTTTTTTTTTT…TC. Conditions: aptamer strand: ATP DNA aptamer (quencher-CACCTGGGGGAGTATTGCGGAGGAAGG + anchor), 100 nM annealed; ATP concentration: 500 uM. Put shortly:
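For every switch-domain sequence, the fluorescence ratio is the mean of per-cluster values, each being summed target-cycle Cy3 intensity over summed buffer-cycle Cy3 intensity. Clusters outside 100-1000 RFU were excluded. On a modified Illumina MiSeq flow-cell, the Cy3-labelled switching-strand clusters were annealed to 100 nM quencher-labelled ATP aptamer, imaged in selection buffer and then after 15 min with 500 uM ATP at 22 °C. Five such cycles were run, with NaOH stripping and re-annealing between them.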
On to ACAGCGTTTG, for which the switch fluorescence ratio was found to be 0.983 ± 0.03. Then TTTTACCCGT, with 1.01 ± 0.013; and TTAGGGTTGG, with 0.99 ± 0.034; and CACGACTTTT, with 1.05 ± 0.04. TAAGCATATG: the switch fluorescence ratio was 1.011 ± 0.0037. As for ACGATGTGCT, the figure is 0.982 ± 0.015; as for CGTACGAATG, 0.9769 ± 0.007. Then TATCTAGGTT, with 1 ± 0.02; and TTGGATGGGA, with 1 ± 0.034; and AGAATCGAAG, with 0.994 ± 0.0041. As for GGCGCTTATA, the figure is 1 ± 0.042; as for AAGATTGCTT, 0.9874 ± 0.0032; as for TTCCAGTAAT, 1.01 ± 0.024. With ACTACTGCTG, the switch fluorescence ratio was 1.05 ± 0.0044.

For the sequence CGGGTGGTTT, the switch fluorescence ratio was 0.988 ± 0.03. Consider TTTTGCCGTT, for which the switch fluorescence ratio worked out at 1.01 ± 0.019.

For TTGGCAGATT, the switch fluorescence ratio worked out at 1.004 ± 0.0061.

Consider AGAATGGGGG, for which the switch fluorescence ratio came out at 1.02 ± 0.022. Then TTTAAGTGAG, with 0.981 ± 0.021; and TACGCCATAT, with 1.46 ± 0.18; and TGTTTCAAGT, with 0.973 ± 0.064. Then TCGGGGATCA, with 0.9752 ± 0.0058; and GGTTGTCCAG, with 0.9966 ± 0.0014. Turning to CAAAGGAGGC, the switch fluorescence ratio turned out to be 1.01 ± 0.048. Then GCGCATTGGT, with 1.06 ± 0.068. Consider CGGGGTTTCG, for which the switch fluorescence ratio came to 0.993 ± 0.028. Then TTGGATTAAC, with 1.01 ± 0.029; and GGGGTCGTCT, with 1.02 ± 0.015. As for ATTGACTCTT, the figure is 1.003 ± 0.0074; as for GACGCGTCTC, 1.033 ± 0.0057. For the sequence GAGGGGTAGG, the switch fluorescence ratio worked out at 0.977 ± 0.021. As for CGGCGGGAGT, the figure is 1.019 ± 0.0073; as for TTTCTGTAAG, 1.01 ± 0.036; as for ATACGGGAAG, 1.05 ± 0.031. As for TTATAATATG, the figure is 0.9846 ± 0.0035; as for CGTACATGAG, 1.02 ± 0.037. For TGCCTGCATT, the switch fluorescence ratio was 1.02 ± 0.011. Then AGACTGATGA, with 1.01 ± 0.014; and GAACGAAAGG, with 1.03 ± 0.042; and CGTTTATGGT, with 0.967 ± 0.022. Then GTTGTAAAGT, with 1.03 ± 0.036; and ACTGTAGTCT, with 1.06 ± 0.012. Then AGGGAGGGAT, with 1.01 ± 0.027; and GTGCTGAATG, with 1.02 ± 0.016.

As for CTATTTTGGT, the switch fluorescence ratio amounted to 0.9784 ± 0.0079.

As to CTGTGAAAAA, the switch fluorescence ratio is 1.09 ± 0.043. As to GGAGAGGACG, the switch fluorescence ratio is 1.07 ± 0.09. Then GATTGTGTG, with 0.998 ± 0.03; and GGGGGTGGGA, with 1 ± 0.019. Then CGGGGCTTAG, with 1.0342 ± 0.00025; and TTTGGATTTC, with 1 ± 0.013; and CAAATACGAT, with 1.05 ± 0.04. As for GCGAAGGCTT, the figure is 1.017 ± 0.0095; as for CAATGGAGAA, 1.01 ± 0.021; as for AAGAGGGTAA, 0.963 ± 0.012.

As to TTAAGTGTGA, the switch fluorescence ratio amounted to 0.982 ± 0.013. As for TTCGAGGAGG, the figure is 0.981 ± 0.017. Then TTTGGTTAAT, with 0.959 ± 0.027; and TTTTCCCATT, with 1.02 ± 0.075; and CGGGGTATCT, with 0.979 ± 0.018. As for AGTTGATGGG, the figure is 0.978 ± 0.049; as for TACTTACTCG, 1.241 ± 0.0038; as for AAAGGCGTGG, 0.9555 ± 0.0064.

Turning to ATTATAACAG, the switch fluorescence ratio was 1.038 ± 0.009. For TTCGCGGTCT, the switch fluorescence ratio is 1.11 ± 0.13.

As for TTTGTTGCA, the switch fluorescence ratio is 1.02 ± 0.011.
